Source: US20210380691A1 (published 2021)
Numbering of substitutions follows the chain as printed. One block for each binder: values may come before it.

Tests used:
Test in all cases: ELISA (A450)
[1] = molecular target: T1, human NKp30 (human, UniProt O14931 19-135)
T1 chain: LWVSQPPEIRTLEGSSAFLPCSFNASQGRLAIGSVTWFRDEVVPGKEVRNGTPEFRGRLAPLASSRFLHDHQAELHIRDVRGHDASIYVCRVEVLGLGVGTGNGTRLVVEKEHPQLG

[2] = molecular target: T2, cynomolgus NKp30 (cynomolgus, UniProt P61483 19-135)
T2 chain: T1 chain with V43A, A63S, H69R, R78W, S86G, H113Y

[3] = molecular target: Rat NKp30

- IC50 [1]: 890 pM
- IC50 [2]: 890 pM
B1: hamster anti-NKp30 antibody 9D9 (antibody, V domains shown)
VH: QIQLQESGPGLVKPSQSLSLSCSVTGFSINTGGYHWNWIRQFPGKKVEWMGYIYSSGTTKYNPSLKSRISITRDTSKNQFFLQLNSVTTEDTATYYCARGDWHYFDYWGQGTMVAVSS
VL: SYTLTQPPLVSVALGQKATIICSGENLSDKYVHWYQQKPGRAPVMVIYENDKRPSGIPDQFSGSNSGNIATLTISKAQAGYEADYYCHCWDSTNSAVFGSGTHLTVL

- IC50 [3]: 320 pM
B2: 9D9-1C1 (antibody, V domains shown)
VH: B1 VH
VL: B1 VL
